For series [1], the target named is T1, GI.1 P domain (Norwalk virus) (Norwalk virus (human norovirus GI.1), UniProt Q83884).
T1 construct: also called GI.1 capsid-protruding (P) domain; GI P domain
The series can be described thus: ITC; Nano-7 (150 μM) injected in 0.5 μl aliquots into GI.1 P domain (15 μM), PBS, 35°C, one-site binding model. The settings on record: both partners purified.

Series [2] concerns the target T1, GI.1 P domain (Norwalk virus). The series can be described thus: ELISA; direct ELISA; P domain or VLPs coated on MaxiSorp plates, serially diluted Nanobodies (1:1 in PBS, starting at 100 μg/ml) for 1 h at 37°C, detected with HRP-conjugated anti-polyhistidine antibody; cutoff OD490 0.15. The settings on record: both partners purified. Background: In an ELISA, binding on a coated surface is turned into a signal by an enzyme label.

The series “crystal structure” deals with the molecule itself. Nature of the series: crystal structure.
Series [3] concerns the target T1, GI.1 P domain (Norwalk virus). Nature of the series: ITC; Nano-94 (150 μM) injected in 2 μl aliquots into GI.1 P domain (15 μM), PBS, 25°C, one-site binding model. The settings on record: both partners purified. On the technique in general: Isothermal titration calorimetry measures the heat released or taken up as one component is titrated into another.
The target is the same in series [4]. Nature of the series: ITC; Nano-62 (150 μM) injected in 2 μl aliquots into GI.1 P domain (15 μM), PBS, 30°C, one-site binding model. Conditions: both partners purified.

B1: Nano-7 (VHH)
VHH: QVQLQESGGGLVQAGGSLRLSCAVSGRTFSNYYSGWFRQAPGKEREFLASIRWSDSTTNYADSVKGRFTISRDTAKNTVYLQMNSLKLEDTAVYHCAARRLATYDYWGQGTQVTVSS
notes: also called Nanobody 7
As a reminder, the Kd is the equilibrium constant for the complex coming apart. Lower therefore signals tighter binding. What is called stoichiometry N is a count of units in the complex or per binding partner. As to B1, in series [1], the dissociation constant Kd was 0.163 nM and the “stoichiometry N” value was roughly 1. In addition, the “detection level (ELISA, cutoff OD490 0.15)” value (“detection level” below) in series [2] turned out to be 0.2 µg/mL.

B2: GI.1 P domain (Norwalk virus) (domain or fragment)
chain: EQKTRPFTLPNLPLSSLSNSRAPLPISSMGISPDNVQSVQFQNGRCTLDGRLVGTTPVSLSHVAKIRGTSNGTVINLTELDGTPFHPFEGPAPIGFPDLGGCDWHINMTQFGHSSQTQYDVDTTPDTFVPHLGSIQANGIGSGNYVGVLSWISPPSHPSGSQVDLWKIPNYGSSITEATHLAPSVYPPGFGEVLVFFMSKMPGPGAYNLPCLLPQEYISHLASEQAPTVGEAALLHYVDPDTGRNLGEFKAYPDGFLTCVPNGASSGPQQLPINGVFVFVSWVSRFYQLKPVGT
notes: also called GI.1 capsid-protruding (P) domain; GI P domain
As for B2, in the series “crystal structure”, the binding result is recorded as “binds”.

B3: Nano-94 (VHH)
VHH: QVQLQESGGGLVQAGGSLRLSCAASGRMFSINSMGWYRQAPGKERELVATISEAGTTTYADSVRGRFTIARDNAKNTVYLQMNSLNPEDTAVYYCNAYIQLDSTIWFRAYWGQGTQVTVSS
notes: also called Nanobody 94
With B3, in series [3], the dissociation constant Kd was determined as 43.4 nM and the “stoichiometry N” value was roughly 1. Also, the “detection level” value in series [2] was determined as 0.1 µg/mL.

B4: Nano-62 (VHH)
VHH: QVQLQESGGGLVMTGGSLRLSCAVSGRTIDVSVMAWFRQAPGKEREFVSGMRWSGMTTYSADSVKDRFTISRDKTKNTVYLQMNSLKPEDTAVYYCAARSRFIVGVPQARDLYDYWGQGTQVTVSS
notes: also called Nanobody 62
Take B4: in series [4], binding was characterised by a dissociation constant (Kd) of 4.58 nM and the “stoichiometry N” value was roughly 1. In series [2], the “detection level” value came out at 0.1 µg/mL.

The record behind these values is PMC6401464 (Journal of Virology, 2019).
